In patent publication US10662235B2, “Cysteine engineered fibronectin type III domain binding molecules” (Janssen Biotech, Inc., priority 2016, dated 2020):
One block for each molecule: values may come before it.

How the values were obtained:
EGFR in NCI-H596 cells = target: T1, EGFR in NCI-H596 cells (Homo sapiens, UniProt P00533); test: Inhibition of EGFR phosphorylation in NCI-H596 cells; assay type: cell-based; conditions: H596 cells (FIG. 7B)
T1 construct: endogenous in cells; host or cells: NCI-H596
Description: NCI-H292, NCI-H441, or NCI-H596 cells were plated in 96 well plates in RPMI medium containing 10% FBS. 24 hours later, medium was replaced with serum free RPMI. […] Cells were treated for 1 h with the monospecific or bispecific molecules and then stimulated with EGF, HGF, or a combination of EGF and HGF for 15 minutes at 37° C., 5% CO2. Cells were lysed with MSD Lysis Buffer and cell signaling was assessed using appropriate MSD Assay plates, according to manufacturer's instructions, as described above.

EGFR in NCI-H292 cells = target: T2, EGFR in NCI-H292 cells (Homo sapiens, UniProt P00533); test: Inhibition of EGFR phosphorylation in NCI-H292 cells; assay type: cell-based; conditions: H292 cells (FIG. 7A)
T2 construct: EGF-stimulated phosphorylation of EGFR in the human tumor cell line NCI-H292; host or cells: NCI-H292
Description: Purified EGFR-binding FN3 domains were tested for their ability to inhibit EGF-stimulated phosphorylation of EGFR in A431 cells at a single concentration. EGFR phosphorylation was monitored using the EGFR phospho(Tyr1173) kit (Meso Scale Discovery). Cells were plated at 20,000/well in clear 96-well tissue culture-treated plates (Nunc) in 100 μL/well of RPMI medium (Gibco) containing GlutaMAX™ with 10% fetal bovine serum (FBS) (Gibco) and allowed to attach overnight at 37° C. in a humidified 5% CO2 atmosphere. Culture medium was removed completely and cells were starved overnight in 100 μL/well of medium containing no FBS at 37° C. in a humidified 5% CO2 atmosphere. […] Signals were detected by addition of 150 μL/well of Read Buffer (Meso Scale Discovery) and reading on a SECTOR® Imager 6000 instrument (Meso Scale Discovery) using manufacturer-installed assay-specific default settings. Percent inhibition of the EGF-stimulated positive control signal was calculated for each EGFR-binding FN3 domain.
NCI-H292, NCI-H441, or NCI-H596 cells were plated in 96 well plates in RPMI medium containing 10% FBS. […] Cells were lysed with MSD Lysis Buffer and cell signaling was assessed using appropriate MSD Assay plates, according to manufacturer's instructions, as described above. […]

EGFR on A431 cells = target: T3, EGFR on A431 cells (Homo sapiens, UniProt P00533); test: A431 cell binding assay; conditions: purified FN3 domains
T3 construct: A431 cells (American Type Culture Collection, cat. # CRL-1555) over-express EGFR; host or cells: A431
Description: To assess the ability of different FN3 domains to bind EGFR in a more physiological context, their ability to bind A431 cells was measured. A431 cells (American Type Culture Collection, cat. # CRL-1555) over-express EGFR with ˜2×10^6 receptors per cell. Cells were plated at 5,000/well in opaque black 96-well plates and allowed to attach overnight at 37° C., in a humidified 5% CO2 atmosphere. FN3 domain-expressing bacterial lysates were diluted 1,000-fold into FACS stain buffer (Becton Dickinson) and incubated for 1 hour at room temperature in triplicate plates. Lysates were removed and cells were washed 3 times with 150 μL/well of FACS stain buffer. Cells were incubated with 50 μL/well of anti-penta His-Alexa488 antibody conjugate (Qiagen) diluted 1:100 in FACS stain buffer for 20 minutes at room temperature. Cells were washed 3 times with 150 μL/well of FACS stain buffer, after which wells were filled with 100 μL of FACS stain buffer and read for fluorescence at 488 nm using an Acumen eX3 reader. […]
A431 cells were plated at 5,000/well in opaque black 96-well plates and allowed to attach overnight at 37° C., in a humidified 5% CO2 atmosphere. […] Cells were washed 3 times with 150 μL/well of FACS stain buffer, after which wells were filled with 100 μL of FACS stain buffer and read for fluorescence at 488 nm using an Acumen eX3 reader. […]

inhibition of phosphorylation of EGFR, bispecific vs monospecific (EGFR in NCI-H596 cells): comparable
inhibition of phosphorylation of EGFR, bispecific vs monospecific (EGFR in NCI-H292 cells): comparable
B1: ECB5: bispecific P53A1R5-17v2 / P114AR7P94-A3, (GGGGS)4, SEQ ID 54 (protein)
chain: MLPAPKNLVVSEVTEDSARLSWADPHGFYDSFLIQYQESEKVGEAIVLTVPGSERSYDLTGLKPGTEYTVSIYGVHNVYKDTNMRGLPLSAIFTTGGGGSGGGGSGGGGSGGGGSMLPAPKNLVVSRVTEDSARLSWTAPDAAFDSFWIRYFEFLGSGEAIVLTVPGSERSYDLTGLKPGTEYVVNIMGVKGGKISPPLSAIFTT
modifications: bispecific EGFR/cMet binding molecule

EC50 (EGFR on A431 cells): > 20 µM
B2: P54CR4-31: EGFR-binding FN3 domain, SEQ ID NO: 26 (protein)
chain: LPAPKNLVVSEVTEDSLRLSWTAPDAAFDSFLIQYQESEKVGEAINLTVPGSERSYDLTGLKPGTEYTVSIYGVLGSYVFEHDVMLPLSAEFTT
modifications: EGFR binding FN3 domain
